Measured values published in patent US20220064286A1 (Genentech, published 2022).

Experiments:
human TIGIT protein = molecular target: T1, human TIGIT protein (human, UniProt Q495A1 22-141, limits assumed); experiment: SPR, bivalent affinity
T1 construct: Recombinant protein (Genentech) used in ELISA screening and as SPR analyte; also called TIGIT antigen
T1 sequence: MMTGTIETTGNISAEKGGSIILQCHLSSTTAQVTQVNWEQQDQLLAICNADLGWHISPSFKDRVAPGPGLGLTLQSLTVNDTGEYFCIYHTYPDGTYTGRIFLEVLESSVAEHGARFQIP

[1] = molecular target: cynomolgus monkey (cyno) TIGIT protein (cynomolgus monkey, UniProt A0A7N9I9V4 89-209); experiment: SPR, bivalent affinity
Sequence of cynomolgus monkey (cyno) TIGIT protein (A0A7N9I9V4 entry or part of it): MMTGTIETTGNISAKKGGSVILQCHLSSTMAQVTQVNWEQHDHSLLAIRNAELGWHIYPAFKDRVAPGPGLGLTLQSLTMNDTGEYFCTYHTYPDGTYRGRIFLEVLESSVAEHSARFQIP

mouse TIGIT-His = molecular target: T2, mouse TIGIT-His (mouse, UniProt P86176 29-148, limits assumed); experiment: Block ELISA Mouse PVR-Fc:TIGIT-His (blocked ligand mouse PVR-Fc)
T2 sequence (looked up): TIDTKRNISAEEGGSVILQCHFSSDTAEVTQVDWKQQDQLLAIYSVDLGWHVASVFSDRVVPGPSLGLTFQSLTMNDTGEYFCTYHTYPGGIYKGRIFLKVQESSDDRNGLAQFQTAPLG
Method: (§1) To test for the ability of the clones to block the TIGIT-PVR interaction, a blocking ELISA assay was used. Briefly, recombinant human PVR-Fc fusion protein, cynomolgus monkey PVR-Fc fusion protein, or mouse PVR-Fc fusion protein was coated at 4 μg/ml at 25 μl/well in phosphate-buffered saline (PBS, pH 7.0) onto 384-well Maxisorp microtiter plates (NUNC, Denmark) and incubated overnight at 4° C. The coating solution was then discarded and the plate was blocked using 0.5% bovine serum albumin (BSA) in PBS at 80 μl/well and incubated with gentle agitation for 1 hour. Titration curves of anti-TIGIT and Fab isotype control antibodies were diluted in assay buffer (PBS, 0.5% BSA, 0.05% Tween 20) using 12 serial 2.5-fold dilutions (40000-1.7 ng/mL). […] The plate was then washed 6× with wash buffer and bound human TIGIT-AviFlag-biotin, cyno TIGIT-AviFlag-biotin, or mouse TIGIT-His was detected by adding 25 μl/well of horseradish peroxidase-conjugated streptavidin (1:10000, Amersham, UK) or horseradish peroxidase-conjugated mouse anti-His (1:2500, Qiagen, Germany) diluted in assay buffer. […] Absorbance was read at 450 nm on a […] ASCENT® microtiter plate reader (Thermo Labsystems, Helsinki, Finland). Fit curves were plotted from the resulting optical density values from the ELISA plates and IC50s were calculated using Genedata Screener software (Genedata, Switzerland).

[2] = molecular target: T3, cynomolgus TIGIT-AviFlag-biotin (cynomolgus monkey, UniProt A0A7N9I9V4 89-209, biotin); experiment: Block ELISA Cyno PVR-Fc:Bio-TIGIT-AviFlag (blocked ligand cyno PVR-Fc)
T3 construct: also called cyno TIGIT-AviFlag-biotin
T3 sequence (A0A7N9I9V4 entry or part of it): as the sequence (A0A7N9I9V4 entry or part of it) above
Method: as §1

[3] = molecular target: T4, mu TIGIT (target named for 10A7 in the heads of Tables 6 and 7) (mu (mouse), UniProt P86176 29-249, limits assumed); experiment: FACS, PVR-Fc on CHO-TIGIT cells; competitor PVR-Fc
T4 construct: Only the column head says mu TIGIT; the text describes no mouse TIGIT cells
T4 sequence (looked up): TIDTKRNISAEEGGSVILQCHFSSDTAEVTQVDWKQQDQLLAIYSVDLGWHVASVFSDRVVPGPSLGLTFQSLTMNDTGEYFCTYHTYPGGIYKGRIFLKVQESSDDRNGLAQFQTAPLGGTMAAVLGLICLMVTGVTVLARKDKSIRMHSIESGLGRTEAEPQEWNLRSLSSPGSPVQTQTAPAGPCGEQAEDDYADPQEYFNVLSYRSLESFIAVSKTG
Method: These studies were further validated in CHO-TIGIT PVR blocking experiments in which TIGIT-expressing CHO cells were incubated with labeled PVR-Fc fusion protein in the presence of anti-TIGIT antibody or an human IgG1 control (FIG. 4A).

[4] = molecular target: T4, mu TIGIT (target named for 10A7 in the …); experiment: FACS, T cell binding (row: Human T cell; column head: mu TIGIT)
Procedure, shortened: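 Activated human peripheral blood T cells were stained with each anti-TIGIT antibody and analysed by flow cytometry. Binding was detected with a FITC-labelled anti-human IgG, gated on CD25+CD4+ and CD25+CD8+ cells (LSR-II or LSR-Fortessa, FlowJo). EC50 values come from these titrations.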

B1: 4.1D3 (antibody, V domains shown)
VH: QVQLQQSGPGLVKPSQTLSLTCAISGDSVSSNSAAWNWIRQSPSRGLEWLGKTYYRFKWYSDYAVSVKGRITINPDTSKNQFSLQLNSVTPEDTAVFYCTRESTTYDLLAGPFDYWGQGTLVTVSS
VL: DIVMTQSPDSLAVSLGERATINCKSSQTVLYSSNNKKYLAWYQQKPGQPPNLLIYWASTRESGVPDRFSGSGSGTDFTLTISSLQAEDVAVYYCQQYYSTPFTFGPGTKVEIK
notes: OMT rat-derived human antibody; also called 4.1D3.Q1
Kd (human TIGIT protein): ≤ 0.019 nM
Kd [1]: 0.36 nM

B2: 4.1D3.Q1E (antibody, V domains shown)
VH: EVQLQQSGPGLVKPSQTLSLTCAISGDSVSSNSAAWNWIRQSPSRGLEWLGKTYYRFKWYSDYAVSVKGRITINPDTSKNQFSLQLNSVTPEDTAVFYCTRESTTYDLLAGPFDYWGQGTLVTVSS
VL: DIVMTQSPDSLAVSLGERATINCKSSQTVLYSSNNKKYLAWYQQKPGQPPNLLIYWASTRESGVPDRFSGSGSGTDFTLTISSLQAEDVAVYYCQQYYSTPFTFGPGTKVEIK
IC50 (mouse TIGIT-His): > 133 nM
IC50 [2]: 2.6 nM

B3: 10A7 (antibody, V domains shown)
VH: EVQLVESGGGLTQPGKSLKLSCEASGFTFSSFTMHWVRQSPGKGLEWVAFIRSGSGIVFYADAVRGRFTISRDNAKNLLFLQMNDLKSEDTAMYYCARRPLGHNTFDSWGQGTLVTVSS
VL: DIVMTQSPSSLAVSPGEKVTMTCKSSQSLYYSGVKENLLAWYQQKPGQSPKLLIYYASIRFTGVPDRFTGSGSGTDYTLTITSVQAEDMGQYFCQQGINNPLTFGDGTKLEIKR
IC50 [3]: 0.07 nM
EC50 [4]: 0.63 nM
